# Source: patent US11919930B2, “Odorant receptor co-receptor” (Sumitomo Chemical Company, Limited, priority 2016, dated 2024)
# B1: Ag(NT-TM4)AmORCO: chimeric co-receptor: NT to TM4 from Anopheles co-receptor, IC2 to C-terminal domain from Apis co-receptor; SEQ ID NO:114 (protein)
# chain: MQVQPTKYVGLVADLMPNIRLMQASGHFLFRYVTGPILIRKVYSWWTLAMVLIQFFAILGNLATNADDVNELTANTITTLFFTHSVTKFIYFAVNSENFYRTLAIWNQTNTHPLFAESDARYHSIALAKMRKLLVLVMATTVLSVVAWVTITFFGESVKTVLDKATNETYTVDIPRLPIKSWYPWNAMSGPAYIFSFIYQIYFLLFSMVQSNLADVMFCSWLLLACEQLQHLKNIMKPLMEFSATLDTVVPNSGELFKAGSAEQPKEQEPLPPVTPPQGENMLDMDLRGIYSNRTDFTTTFRPTAGMTFNGGVGPNGLTKKQEMLVRSAIKYWVERHKHIVRLVTAIGDAYGVALLLHMLTTTITLTLLAYQATKIHAVDTYAASVVGYLLYSLGQVFMLCIFGNRLIEESSSVMEAAYSCHWYDGSEEAKTFVQIVCQQCQKAMSISGAKFFTVSLDLFASVLGAMVTYFMVLVQLK
# B2: Dm(NT-TM4)AmORCO: chimeric co-receptor: NT to TM4 from Drosophila co-receptor, IC2 to C-terminal domain from Apis co-receptor; SEQ ID NO:100 (protein)
# chain: MTTSMQPSKYTGLVADLMPNIRAMKYSGLFMHNFTGGSAFMKKVYSSVHLVFLLMQFTFILVNMALNAEEVNELSGNTITTLFFTHCITKFIYLAVNQKNFYRTLNIWNQVNTHPLFAESDARYHSIALAKMRKLFFLVMLTTVASATAWTTITFFGDSVKMVVDHETNSSIPVEIPRLPIKSFYPWNASHGMFYMISFAFQIYYVLFSMIHSNLCDVMFCSWLIFACEQLQHLKNIMKPLMEFSATLDTVVPNSGELFKAGSAEQPKEQEPLPPVTPPQGENMLDMDLRGIYSNRTDFTTTFRPTAGMTFNGGVGPNGLTKKQEMLVRSAIKYWVERHKHIVRLVTAIGDAYGVALLLHMLTTTITLTLLAYQATKIHAVDTYAASVVGYLLYSLGQVFMLCIFGNRLIEESSSVMEAAYSCHWYDGSEEAKTFVQIVCQQCQKAMSISGAKFFTVSLDLFASVLGAMVTYFMVLVQLK
# Experiments:
# odorant receptor AaOR8 = experiment: Aequorin luminescence measurement in HEK293FT cells co-expressing AaOR8 and a co-receptor, 1-octen-3-ol added; type: cell-based; settings: 1-octen-3-ol 10^-4 to 10^-10 M
# Procedure: HEK293FT cells (purchased from invitrogen, Inc.) were inoculated into 10-cm Petri dishes at a concentration of 3×10^6 cells/Petri dish, and the cells were cultured in DMEM medium containing 10% FBS (manufactured by Nacalai Tesque, Inc.) for about 24 hours under the conditions of 37° C. and 5% CO2. 3 μg of any one of the co-receptor expression plasmids produced, 1.5 μg of any one of the odorant receptor expression plasmids produced, and 8 μg of Aequorin expression plasmid were mixed with 12.5 μL of Plus reagent and 31.25 μL of LIPOFECTAMINE LTX (manufactured by Invitrogen, Inc.), and the mixture was maintained for 30 minutes. Subsequently this liquid mixture was transfected into the above-mentioned cells. After 4 hours from the initiation of transfection, the cells were inoculated onto a 96-well plate at a concentration of 9×10^4 cells/well, and the cells were cultured in DMEM medium containing 10% FBS (manufactured by Nacalai Tesque, Inc.) for about 24 hours under the conditions of 37° C. and 5% CO2. Thereby, transformed cells having a co-receptor expression plasmid, an odorant receptor expression plasmid, and an aequorin expression plasmid transiently incorporated therein were obtained.
# Aequorin is activated when hound to a calcium ion, and oxidizes a substrate such as coelenterazine, thus emitting light. […] Therefore, whether an odorant receptor complex functions an ion channel as a result of addition of a substance to be detected, can be measured from the change in the amount of luminescence.
# A culture fluid of the transformed cells was removed, and the medium was exchanged with Hanks-HEPES (20 mM, pH 7.4) including Assay buffer (0.5 μM coelenterazine h (manufactured by Promega Corporation) and 0.3% BSA. culture system was left to stand for another 4 hours at room temperature. Subsequently, a substance to be detected, which corresponded to an odorant receptor, was added to the cell culture using FLEXSTATION 3 (manufactured by Molecular Devices, LLC), and at the same time, the amount of luminescence of the cells was measured. As a control substance, the amount of luminescence in the cells to which dimethyl sulfoxide had been added was designated as 1, and the amount or luminescence of cells to which the substance to be detected was added was calculated as a relative value.
# (§1) Cells into which: • an expression plasmid of odorant receptor AaOR8; • an expression plasmid of any one of co-receptor AaORCO or DmORCO, or various chimeric co-receptors Dm-AaORCO having different positions of recombination [Dm(NT-EC1)AaORCO, Dm(NT-TM3)AaOROC, Dm(NT-TM4)AaORCO, Dm(NT-TM5)AaORCO, or Dm(NT-TM6)AaORCO]; and • an aequorin expression plasmid had been incorporated were used, and the amount of luminescence was measured as explained above. 1-Octen-3-ol was used as a substance to be detected, and 1-octen-3-ol was added to the culture fluid at a concentration of 10^−4 M, 10^−5 M, 10^−6 M, 10^−7 M, 10^−8 M, 10^−9 M, or 10^−10 M. The results are presented in FIG. 1.
# as §1, with “AmORCO” for “AaORCO”, “Dm-AmORCO” for “Dm-AaORCO”, “[Dm(NT-TM3)AmOROC, Dm(NT-TM4)AmORCO, Dm(NT-TM5)AmORCO,” for “[Dm(NT-EC1)AaORCO, Dm(NT-TM3)AaOROC, Dm(NT-TM4)AaORCO, Dm(NT-TM5)AaORCO,”, “Dm(NT-TM6)AmORCO];” for “Dm(NT-TM6)AaORCO];”, “2. […]” for “1.”
# odorant receptor BmOR56 = experiment: Aequorin luminescence measurement in HEK293FT cells co-expressing BmOR56 and a co-receptor, cis-jasmone added; type: cell-based, Bombyx mori; settings: cis-jasmone 10^-5 to 10^-11 M, compared to cells that expressed BmORCO and BmOR56
# Procedure: (§2) HEK293FT cells (purchased from invitrogen, Inc.) were inoculated into 10-cm Petri dishes at a concentration of 3×10^6 cells/Petri dish, and the cells were cultured in DMEM medium containing 10% FBS (manufactured by Nacalai Tesque, Inc.) for about 24 hours under the conditions of 37° C. and 5% CO2. 3 μg of any one of the co-receptor expression plasmids produced, 1.5 μg of any one of the odorant receptor expression plasmids produced, and 8 μg of Aequorin expression plasmid were mixed with 12.5 μL of Plus reagent and 31.25 μL of LIPOFECTAMINE LTX (manufactured by Invitrogen, Inc.), and the mixture was maintained for 30 minutes. Subsequently this liquid mixture was transfected into the above-mentioned cells. […]
# (§3) Aequorin is activated when hound to a calcium ion, and oxidizes a substrate such as coelenterazine, thus emitting light. […] Therefore, whether an odorant receptor complex functions an ion channel as a result of addition of a substance to be detected, can be measured from the change in the amount of luminescence. […]
# Cells into which: • an expression plasmid of odorant receptor BmOR56; • an expression plasmid of any one of co-receptor BmORCO or chimeric co-receptor Dm(NT-TM4)AmORCO; and • an aequorin expression plasmid had been incorporated were used, and the amount of luminescence was measured as explained above. […]
# odorant receptor DmOR47a = experiment: Aequorin luminescence measurement in HEK293FT cells co-expressing DmOR47a and a co-receptor, pentyl acetate added; type: cell-based, Drosophila melanogaster; settings: pentyl acetate 10^-4 to 10^-7 M, compared to cells that expressed original DmORCO or AmORCO
# Procedure: as §2, §3
# Cells into which: • an expression plasmid of odorant receptor DmOR47a; • an expression plasmid of any one of co-receptor DmORCO or AmORCO, or chimeric co-receptor Dm(NT-TM4)AmORCO; and • an aequorin expression plasmid had been incorporated were used, and the amount of luminescence was measured as explained above. […]
# Sequence of odorant receptor AaOR8 (as listed by the source): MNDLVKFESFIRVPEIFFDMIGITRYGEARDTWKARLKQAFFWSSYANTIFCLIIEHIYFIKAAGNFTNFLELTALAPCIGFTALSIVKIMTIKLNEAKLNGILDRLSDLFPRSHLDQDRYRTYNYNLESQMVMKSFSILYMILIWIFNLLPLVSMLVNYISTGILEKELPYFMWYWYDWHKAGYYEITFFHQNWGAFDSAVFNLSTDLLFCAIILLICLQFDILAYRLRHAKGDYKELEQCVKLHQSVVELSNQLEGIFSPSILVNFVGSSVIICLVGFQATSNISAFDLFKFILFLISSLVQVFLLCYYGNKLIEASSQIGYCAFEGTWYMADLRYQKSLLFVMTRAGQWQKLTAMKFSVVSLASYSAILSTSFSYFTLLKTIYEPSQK
# Sequence of odorant receptor DmOR47a (as listed by the source, one chain of several): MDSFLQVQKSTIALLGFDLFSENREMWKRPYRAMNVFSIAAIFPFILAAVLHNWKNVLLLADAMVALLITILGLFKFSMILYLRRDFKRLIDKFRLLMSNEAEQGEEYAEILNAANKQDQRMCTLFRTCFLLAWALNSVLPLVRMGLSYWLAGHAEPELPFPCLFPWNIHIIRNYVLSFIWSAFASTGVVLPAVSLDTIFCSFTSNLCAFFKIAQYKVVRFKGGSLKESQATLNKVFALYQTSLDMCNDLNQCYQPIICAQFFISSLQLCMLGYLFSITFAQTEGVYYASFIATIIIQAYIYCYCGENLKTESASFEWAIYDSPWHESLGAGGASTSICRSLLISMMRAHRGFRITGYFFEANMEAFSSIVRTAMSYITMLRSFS
# Sequence of odorant receptor BmOR56 (as listed by the source, one chain of several): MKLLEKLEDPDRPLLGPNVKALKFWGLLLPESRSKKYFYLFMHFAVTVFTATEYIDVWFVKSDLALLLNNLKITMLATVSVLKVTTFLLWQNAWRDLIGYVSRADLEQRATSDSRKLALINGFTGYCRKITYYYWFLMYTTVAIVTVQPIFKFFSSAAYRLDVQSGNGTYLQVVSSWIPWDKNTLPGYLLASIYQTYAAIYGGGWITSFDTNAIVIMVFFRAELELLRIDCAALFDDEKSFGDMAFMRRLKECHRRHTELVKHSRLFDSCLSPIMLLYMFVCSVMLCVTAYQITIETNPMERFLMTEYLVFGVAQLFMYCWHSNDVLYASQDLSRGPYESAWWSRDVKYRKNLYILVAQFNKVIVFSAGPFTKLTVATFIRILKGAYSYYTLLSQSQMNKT
molecule,measurement,setting,value
B1,concentration of 1-octan-3-ol at which cells responded,odorant receptor AaOR8; compared to cells that expressed original AaORCO or AmORCO,responded to 1-octan-3-ol at a lower concentration
B2,response (relative amount of luminescence) to cis-jasmone,odorant receptor BmOR56,responded more strongly to cis-jasmone
same,increase in the amount of luminescence caused by addition of 1-octen-3-ol,odorant receptor AaOR8; compared to cells that expressed original AmORCO or DmORCO,the increase in the amount of luminescence caused by addition of 1-octen-3-ol was larger
same,response (relative amount of luminescence) to pentyl acetate,odorant receptor DmOR47a,responded more strongly to pentyl acetate
